Literature values in article PMC10105536.
pKd: −log10 of the molar value. “And” between values parts separate entries of the source, which are not always exact repeats. Equal values may be shown once.

Target: EGFR (Homo sapiens) (UniProt P00533)

For EGF (from UniProt P01133), the pKd is given as 9.52 and 8.70.
